Reference: patent US20040214771

Target: T1, recombinant purified full length SRF (pET-15b, histidine tag, expressed in BL21)
T1 chain: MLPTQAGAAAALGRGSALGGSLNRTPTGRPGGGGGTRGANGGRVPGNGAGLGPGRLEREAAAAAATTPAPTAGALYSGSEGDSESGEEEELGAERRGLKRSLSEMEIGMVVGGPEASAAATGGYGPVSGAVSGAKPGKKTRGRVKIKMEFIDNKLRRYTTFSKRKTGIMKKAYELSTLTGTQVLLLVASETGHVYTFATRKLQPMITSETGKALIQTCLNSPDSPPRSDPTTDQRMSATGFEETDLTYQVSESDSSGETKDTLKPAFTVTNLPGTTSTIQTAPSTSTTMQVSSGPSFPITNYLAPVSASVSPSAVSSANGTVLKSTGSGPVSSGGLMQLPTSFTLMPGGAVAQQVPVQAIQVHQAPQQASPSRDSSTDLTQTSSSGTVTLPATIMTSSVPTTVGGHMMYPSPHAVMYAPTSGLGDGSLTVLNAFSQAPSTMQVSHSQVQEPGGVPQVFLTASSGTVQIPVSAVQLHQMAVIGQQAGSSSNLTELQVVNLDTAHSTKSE

B1: active recombinant human caspase 3 (BD PharMingen) (protein)
chain: SGISLDNSYKMDYPEMGLCIIINNKNFHKSTGMTSRSGTDVDAANLRETFRNLKYEVRNKNDLTREEIVELMRDVSKEDHSKRSSFVCVLLSHGEEGIIFGTNGPVDLKKITNFFRGDRCRSLTGKPKLFIIQACRGTELDCGIETDSGVDDDMACHKIPVEADFLYAYSTAPGYYSWRNSKDGSWFIQSLCAMLKQYADKLEFMHILTRVNRKVATEFESFSFDATFHAKKQIPCIVSMLTKELYFYH
in vitro cleavage of SRF, read by Western blot: Caspase 3 cleaved SRF in a time-dependent manner
